According to the Immune Epitope Database (IEDB):

Each sequence was assayed against HLA-A*02:01 (assay: IEDB peptide-MHC binding, cellular MHC/competitive/fluorescence; ≥ and ≤ were set here for values at or beyond the usual limits of such assays). Conditions: source organism: Influenza A virus.
Sequence IVSSYVCSGL has an IC50 of 6.2 µM.

Same assay, conditions: source organism: Mammarenavirus brazilense
Work on LRYFIMAYV yielded an IC50 of 12.7 µM.

Same assay, conditions: source organism: Mammarenavirus choriomeningitidis
LNQTVYSLV showed an IC50 of 9.25 µM.

Same assay, conditions: source organism: Mammarenavirus lassaense
LNQAVNNLV was tested, and the IC50 was 7.96 µM.
YCSNIKLQVV showed an IC50 of 8.6 µM.

Same assay, conditions: source organism: Mammarenavirus whitewaterense
For KTVAGSFAS, the IC50 was 5.56 µM.

Same assay, conditions: source organism: Vaccinia virus WR
For IVNNFITKEI, the IC50 was 13.7 µM.
Sequence IVSLCPTKKL has an IC50 of 9.97 µM.
Work on KVYNGIFVDT yielded an IC50 of 11.8 µM.
LAEHISDSI was tested, and the IC50 was 6.05 µM.
LINLVQYRI showed an IC50 of 5.9 µM.
Sequence MLHNPTSET has an IC50 of 13.7 µM.
In the case of MTSTRTIIL, the IC50 is reported as 6.47 µM.
NASKTINAL gave an IC50 of 26.8 µM.
Sequence RVKQWVMDT has an IC50 of 20.3 µM.
RVKQWVMDTL was tested, and the IC50 was 21.4 µM.
Work on RVNDLNRMPT yielded an IC50 of 7.2 µM.
Work on TLFIDRGSI yielded an IC50 of 17.7 µM.
TMKAIEKDRL showed an IC50 of 17.5 µM.
VISTIANSNI was tested, and the IC50 was 7.8 µM.
Work on VTSPLTGNNT yielded an IC50 of 39.5 µM.
In the case of YTKHSMLTNA, the IC50 is reported as 38.3 µM.

These sequences were tested against HLA-A*02:06 in the same assay as above. Conditions: source organism: Hepacivirus hominis.
KIMSGEKPSV gave an IC50 of 9.47 µM.

Same assay, conditions: source organism: Influenza A virus
Sequence ALANTIEV has an IC50 of 9.13 µM.
For IVSSYVCSGL, the IC50 was 12.7 µM.
In the case of NLYNIRNL, the IC50 is reported as 50.8 µM.
Sequence RAMAWTVVNSI has an IC50 of 8.06 µM.
For RLNKRSYLI, the IC50 was 18.5 µM.
For RMGAVTTEV, the IC50 was 5.52 µM.

Same assay, conditions: source organism: Mammarenavirus brazilense
For KCFGNTALA, the IC50 was at least 70 µM.
LRYFIMAYV was tested, and the IC50 was 20.1 µM.

Same assay, conditions: source organism: Mammarenavirus choriomeningitidis
KCMSAALKNL was tested, and the IC50 was 14 µM.
In the case of LNQTVYSLV, the IC50 is reported as 5.1 µM.

Same assay, conditions: source organism: Mammarenavirus lassaense
With LNQAVNNLV the IC50 was 13.6 µM.
In the case of YCSNIKLQVV, the IC50 is reported as 7.13 µM.

Same assay, conditions: source organism: Mammarenavirus whitewaterense
INISGYNLSL showed an IC50 of 11.4 µM.
KTVAGSFAS was tested, and the IC50 was 9.14 µM.

Same assay, conditions: source organism: SARS-CoV1
For LLFLVLIMLI, the IC50 was 8.3 µM.

Same assay, conditions: source organism: Vaccinia virus WR
ALKNSQAEL showed an IC50 of 33 µM.
ALTDVEKRI was tested, and the IC50 was 14.3 µM.
DMDFDLNIFM gave an IC50 of 5.32 µM.
With DTGKKELALT the IC50 was 6.8 µM.
Sequence DVDMDFDLNI has an IC50 of 5.83 µM.
For FLVIAINAM, the IC50 was at least 70 µM.
GLSASDVDM was tested, and the IC50 was 13.8 µM.
In the case of GLTTHCTKL, the IC50 is reported as 31.6 µM.
GMMQNDYGGM gave an IC50 of 12 µM.
HIGHHYIWI gave an IC50 of 25.3 µM.
HLENDKIEDL was tested, and the IC50 was 10.6 µM.
IINSVSIIL showed an IC50 of 25.9 µM.
With ILANERYRSA the IC50 was 7.81 µM.
With IVNNFITKEI the IC50 was 14.2 µM.
Work on IVSLCPTKKL yielded an IC50 of 28.5 µM.
KLDDTGKKEL gave an IC50 of 5.53 µM.
For KLFKRERDA, the IC50 was 14.9 µM.
Work on KLFKRERDAI yielded an IC50 of 14.2 µM.
With KLKVDSDSGL the IC50 was 10 µM.
KVYNGIFVDT was tested, and the IC50 was 16.4 µM.
LAEHISDSI gave an IC50 of 19.3 µM.
Work on LINLVQYRI yielded an IC50 of 5.34 µM.
LINLVQYRIL gave an IC50 of 15.9 µM.
LLEMKYALI showed an IC50 of 14.9 µM.
Work on LLENKSLTIL yielded an IC50 of 7.43 µM.
LMELPVKTDI showed an IC50 of 12.9 µM.
With MAFILGIIIT the IC50 was 10.3 µM.
MLHNPTSET showed an IC50 of at least 70 µM.
For MTSTRTIIL, the IC50 was 6.79 µM.
NASKTINAL was tested, and the IC50 was 6.11 µM.
For NLRCHSAHV, the IC50 was 8.03 µM.
Sequence NLVQYRILPM has an IC50 of 24.5 µM.
QILDNAAKYV gave an IC50 of 11.4 µM.
For QLSNNKYVL, the IC50 was 10.7 µM.
In the case of RLRYNLCKYL, the IC50 is reported as 15.7 µM.
With RLYNSLKRFT the IC50 was 7.28 µM.
Work on RVKQWVMDT yielded an IC50 of 13.5 µM.
RVKQWVMDTL showed an IC50 of 27.8 µM.
RVNDLNRMPT showed an IC50 of 7.72 µM.
SLALKNSQA showed an IC50 of 19 µM.
SLKRFTHTTA showed an IC50 of 7.31 µM.
Work on SMKGENVFI yielded an IC50 of 13.7 µM.
With TLFIDRGSI the IC50 was at least 70 µM.
For TMKAIEKDRL, the IC50 was at least 70 µM.
With VISTIANSNI the IC50 was 5.16 µM.
Work on VLQQNNSFI yielded an IC50 of 8.69 µM.
Sequence VLQQNNSFII has an IC50 of 9.63 µM.
VLTILYYGA showed an IC50 of 6.24 µM.
In the case of VMPEKRNVVV, the IC50 is reported as 27.6 µM.
With VTSPLTGNNT the IC50 was 5.13 µM.
With YIRRNMINKL the IC50 was 8.67 µM.
Sequence YTKHSMLTNA has an IC50 of 7.34 µM.

These sequences were tested against HLA-A*68:02 in the same assay as above. Conditions: source organism: Hepacivirus hominis.
Sequence KIMSGEKPSV has an IC50 of at least 70 µM.

Same assay, conditions: source organism: Influenza A virus
Sequence ALANTIEV has an IC50 of 59.3 µM.
NLYNIRNL was tested, and the IC50 was 15.3 µM.
RAMAWTVVNSI gave an IC50 of 7.51 µM.
For RLNKRSYLI, the IC50 was 42.6 µM.
Sequence RMGAVTTEV has an IC50 of 27.1 µM.

Same assay, conditions: source organism: Mammarenavirus brazilense
With KCFGNTALA the IC50 was 25.9 µM.

Same assay, conditions: source organism: Mammarenavirus choriomeningitidis
Sequence KCMSAALKNL has an IC50 of 43.5 µM.

Same assay, conditions: source organism: Mammarenavirus whitewaterense
Sequence INISGYNLSL has an IC50 of 17.4 µM.

Same assay, conditions: source organism: SARS-CoV1
For LLFLVLIMLI, the IC50 was 5.1 µM.

Same assay, conditions: source organism: Vaccinia virus WR
For ALKNSQAEL, the IC50 was at least 70 µM.
Sequence ALTDVEKRI has an IC50 of 23.9 µM.
DMDFDLNIFM gave an IC50 of 7.3 µM.
With DTGKKELALT the IC50 was 10 µM.
For DVDMDFDLNI, the IC50 was 8.84 µM.
For FLVIAINAM, the IC50 was 23.3 µM.
GLSASDVDM showed an IC50 of at least 70 µM.
With GLTTHCTKL the IC50 was at least 70 µM.
Sequence GMMQNDYGGM has an IC50 of 26.4 µM.
HIGHHYIWI was tested, and the IC50 was 19.9 µM.
HLENDKIEDL gave an IC50 of 27.1 µM.
IINSVSIIL gave an IC50 of 29.9 µM.
Sequence ILANERYRSA has an IC50 of 26.5 µM.
KLDDTGKKEL was tested, and the IC50 was 35.2 µM.
Sequence KLFKRERDA has an IC50 of 35.8 µM.
With KLFKRERDAI the IC50 was at least 70 µM.
For KLKVDSDSGL, the IC50 was 28.2 µM.
With LINLVQYRIL the IC50 was 29.9 µM.
In the case of LLEMKYALI, the IC50 is reported as 35.8 µM.
In the case of LLENKSLTIL, the IC50 is reported as 21.3 µM.
LMELPVKTDI gave an IC50 of at least 70 µM.
In the case of MAFILGIIIT, the IC50 is reported as 5.16 µM.
Sequence NLRCHSAHV has an IC50 of 8.2 µM.
In the case of NLVQYRILPM, the IC50 is reported as at least 70 µM.
For QILDNAAKYV, the IC50 was 35.8 µM.
With QLSNNKYVL the IC50 was 12.5 µM.
Work on RLRYNLCKYL yielded an IC50 of 19.2 µM.
RLYNSLKRFT showed an IC50 of 14.6 µM.
With SLALKNSQA the IC50 was 29.6 µM.
With SLKRFTHTTA the IC50 was 6.08 µM.
Sequence SMKGENVFI has an IC50 of 9.34 µM.
With VLQQNNSFI the IC50 was 16.3 µM.
Work on VLQQNNSFII yielded an IC50 of 16.6 µM.
VLTILYYGA showed an IC50 of 18.6 µM.
Sequence VMPEKRNVVV has an IC50 of 6.74 µM.
YIRRNMINKL gave an IC50 of 13.7 µM.

These sequences were tested against HLA-A*02:01 (assay: IEDB peptide-MHC binding, purified MHC/competitive/radioactivity; ≥ and ≤ were set here for values at or beyond the usual limits of such assays). Conditions: source organism: Hepacivirus hominis.
For KIMSGEKPSV, the IC50 was 1120 nM.

Same assay, conditions: source organism: Influenza A virus
For NLYNIRNL, the IC50 was 1340 nM.
RAMAWTVVNSI gave an IC50 of 624 nM.
For RMGAVTTEV, the IC50 was 222 nM.

Same assay, conditions: source organism: Mammarenavirus brazilense
For KCFGNTALA, the IC50 was 3330 nM.

Same assay, conditions: source organism: Mammarenavirus choriomeningitidis
KCMSAALKNL showed an IC50 of 1560 nM.

Same assay, conditions: source organism: Mammarenavirus whitewaterense
INISGYNLSL gave an IC50 of 1830 nM.

Same assay, conditions: source organism: SARS-CoV1
Sequence LLFLVLIMLI has an IC50 of 592 nM.

Same assay, conditions: source organism: Vaccinia virus WR
ALKNSQAEL was tested, and the IC50 was 1740 nM.
ALTDVEKRI showed an IC50 of 1150 nM.
In the case of DMDFDLNIFM, the IC50 is reported as 1750 nM.
Work on DTGKKELALT yielded an IC50 of 1680 nM.
In the case of DVDMDFDLNI, the IC50 is reported as 4560 nM.
With GLSASDVDM the IC50 was 1720 nM.
Sequence GLTTHCTKL has an IC50 of 613 nM.
Sequence GMMQNDYGGM has an IC50 of 705 nM.
For HIGHHYIWI, the IC50 was 2990 nM.
Sequence HLENDKIEDL has an IC50 of 1800 nM.
IINSVSIIL gave an IC50 of 2090 nM.
In the case of ILANERYRSA, the IC50 is reported as 802 nM.
For KLDDTGKKEL, the IC50 was 450 nM.
With KLFKRERDA the IC50 was 859 nM.
For KLFKRERDAI, the IC50 was 1480 nM.
With KLKVDSDSGL the IC50 was 2360 nM.
With LINLVQYRIL the IC50 was 2220 nM.
For LLEMKYALI, the IC50 was 2540 nM.
In the case of LLENKSLTIL, the IC50 is reported as 1150 nM.
With LMELPVKTDI the IC50 was 1330 nM.
MAFILGIIIT showed an IC50 of 663 nM.
For NLRCHSAHV, the IC50 was 3060 nM.
Sequence NLVQYRILPM has an IC50 of 1440 nM.
